From US20250018037A1 (SEOUL NATIONAL UNIVERSITY R AND DB FOUNDATION, published 2025) come the findings set out here.

No end group written: not given here. *: point of attachment. Biotin = O=C1N[C@H]2[C@H](CS[C@H]2CCCCC(=O)*)N1

Assay [1] concerns the target T1, Human CD40 on cells (Raji, Daudi, IM-9) (human, UniProt P25942 21-277).
T1 construct: whole, on cells; also called cell surface CD40; hCD40
Put plainly: flow cytometry on Raji cells, anti-Myc staining (axis Myc); number not labelled as MFI on the sheet; 2nd Ab only -30.7. In general terms: A flow cytometer gives signals particle by particle.

Assay [2] has as its target T2, BSA-conjugated c-Myc peptide (also: conjugated to BSA by thiol-maleimide reaction, thiol residue not given here).
T2 construct: also called the antigen
T2 peptide: EQKLISEEDL
Put plainly: indirect ELISA after bio-panning against BSA-conjugated c-Myc peptide. Background: An ELISA detects its analyte on a solid surface through an enzyme-linked reagent.

Assay [3] concerns the target T3, biotin-labeled c-Myc peptide (Biotin-GGGGSEQKLISEEDL).
T3 construct: It is not the BSA conjugate m23; also called biotin c-Myc peptide; stain for Myc CAR
T3 peptide: Biotin-GGGGSEQKLISEEDL
The assay is described as follows: flow cytometry of human T cells 8 days after transduction, stained with biotin-labeled c-Myc peptide plus streptavidin-PE; axis Myc CAR. The method, then: After 24 h, the activated T cells were harvested, resuspended (1×10⁶/ml) in a TM media containing human IL-7, human IL-15, and the lentiviral concentrate, and cultured for two days for CAR transduction. After washing the transduced T cells, the cells were expanded in TM media with human IL-7 and human IL-15 for eight days before use. CAR expression on the cell surface was determined by flow cytometry using biotin-labeled 6×His peptide (Biotin-[…]; Peptron) for hHis CAR-T or biotin-labeled c-Myc peptide (Biotin-[…]; Peptron) for hMyc CAR-T and PE-labeled streptavidin (Biolegend).

Assay [4] concerns the target T4, CD40-hFc protein (Acro Biosystems, #CD0-H5253) (UniProt P25942 21-193).
T4 construct: Bought protein
The assay is described as follows: SPR (Biacore 8K): CD40-hFc captured on immobilized anti-human Fc IgG, scFv injected in 2-fold dilutions (6 curves). An excerpt: (§1) Since the murine anti-His antibody had decreased binding affinity against 6×His peptide after humanization, affinity maturation was further performed to increase it and chicken anti-CD40 antibody (2B1) was only humanized. Serial dilution antibodies at 6 concentrations were used to characterize the kinetics of antibody-antigen binding by SPR. […] So, there was not affinity loss against their antigen after humanization (FIG. 22B).
(§2) A Biacore 8K SPR system (Cytiva) equipped with CM5 sensor chip (Cytiva) was used to generate binding kinetic rate and affinity constants. To prepare the capture surfaces for anti-His antibodies, streptavidin was immobilized, followed by biotin conjugated 6×His peptide was captured. The antibodies were 2-fold serial diluted with 1×PBS, then injected at a flow rate of 30 μL/min for 3 minutes, allowing 10 minutes dissociation phase. The surface was regenerated using 10 mM glycine, pH 1.5. The kinetics were analyzed using Biacore 8K evaluation software, version 1.0 (Cytiva). In case of anti-CD40 antibodies, anti-human Fc IgG (Jackson ImmunoResearch) was immobilized, and then CD40-hFc protein (Acro Biosystems, #CD0-H5253) was captured. The antibodies were 2-fold serial diluted with HBS-EP+ buffer (10 mm HEPES, 150 mm sodium chloride, 3 mm EDTA, 0.05% Polysorbate 20), then injected at a flow rate of 30 μL/min for 4 minutes, allowing >15 minutes dissociation phase.
For orientation: SPR reads the build-up and loss of mass on a sensor chip optically.

Assay [5] deals with T5, Biotin conjugated 6×His peptide (also: biotin conjugated, site not given here).
T5 construct: also called histidine hexamer peptide
T5 peptide: HHHHHH
The assay is described as follows: SPR (Biacore 8K): biotin 6×His peptide captured on immobilized streptavidin, scFv injected in 2-fold dilutions (6 curves).
Description: as §1, §2

T1 sequence (P25942 21-277): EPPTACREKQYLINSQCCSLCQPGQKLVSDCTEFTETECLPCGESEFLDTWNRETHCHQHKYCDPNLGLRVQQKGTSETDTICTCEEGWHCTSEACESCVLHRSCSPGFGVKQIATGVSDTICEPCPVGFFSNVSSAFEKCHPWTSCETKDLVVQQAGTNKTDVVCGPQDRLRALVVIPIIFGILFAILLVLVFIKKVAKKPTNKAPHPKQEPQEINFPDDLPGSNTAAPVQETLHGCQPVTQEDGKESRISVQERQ
T4 sequence (P25942 21-193 limits assumed): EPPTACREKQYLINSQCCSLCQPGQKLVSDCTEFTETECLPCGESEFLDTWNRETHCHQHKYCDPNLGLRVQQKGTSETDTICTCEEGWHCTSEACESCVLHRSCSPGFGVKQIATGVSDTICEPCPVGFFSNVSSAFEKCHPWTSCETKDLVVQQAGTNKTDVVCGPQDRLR

B1: 2B1-L1-Myc-Ck (scFv)
scFv: QAALTQPSSVSANPGETVKITCSGGDSYAGSYYYGWFQQKAPGSAPVTVIYYNDKRPSDIPSRFSGSTSGSTSTLTITGVQAEDEAVYYCGSIDTSSGTGIFGAGTTLTVLGQSSRSSGGGGSSGGGGSAVTLDESGGGLQTPGGALSLVCKGSGFTFSSYQMFWVRQAPGKGLEYVAEISGSGLSTWYAPAVKGRATISRDNGQSTVRLQLNNLRAEDTGTYYCAKAAGSCGVGTCAGGIVDGIDAWGHGTEVIVSSTSGQAGQGGGGSEQKLISEEDLRTVAAPSVFIFPPSDEQLKSGTASVVCLLNNFYPREAKVQWKVDNALQSGNSQESVTEQDSKDSTYSLSSTLTLSKADYEKHKVYACEVTHQGLSLPVTKSFNRGES
B1 registered an MFI in assay [1] of 2400.

B2: Anti-Myc scFv clone 3A6 (scFv)
scFv: QAALTQPSSVSANLGGTVKITCSGGGGSDDGSYYYSWHQQKSPGSAPVTVIYENNNRPSDIPSRFSGSKSGSTATLTITGVQAEDEAVYYCGSRDSSYVDYVGIFGAGTTLTVLGQSSRSSGGGGSSGGGGSAVTLDESGGGLQTPGRALSLVCKASGFTFSSYDMAWVRQEPGKGLEYVASISRSGRYTRYGPAVKGRATISRDNGQSTVRLQLNNLRAEDTATYFCTRGGAVSIDTWGHGTEVIVSS
notes: Selected from a chicken scFv phage library by indirect ELISA; Later produced with an 8×His tag
As for B2, in assay [2], the binding result is given as “binds”.

B3: 2B1-Ck-L2-Myc (scFv)
scFv: QAALTQPSSVSANPGETVKITCSGGDSYAGSYYYGWFQQKAPGSAPVTVIYYNDKRPSDIPSRFSGSTSGSTSTLTITGVQAEDEAVYYCGSIDTSSGTGIFGAGTTLTVLGQSSRSSGGGGSSGGGGSAVTLDESGGGLQTPGGALSLVCKGSGFTFSSYQMFWVRQAPGKGLEYVAEISGSGLSTWYAPAVKGRATISRDNGQSTVRLQLNNLRAEDTGTYYCAKAAGSCGVGTCAGGIVDGIDAWGHGTEVIVSSTSGQAGQRTVAAPSVFIFPPSDEQLKSGTASVVCLLNNFYPREAKVQWKVDNALQSGNSQESVTEQDSKDSTYSLSSTLTLSKADYEKHKVYACEVTHQGLSSPVTKSFNRGESGGGGSGGGSEQKLISEEDL
Molecule B3 registered an MFI in assay [1] of 2070.

B4: Anti-Myc scFv clone 7A1 (scFv)
scFv: QAALTQPSSVSVNPGETVKITCSGGGSSSYYGWYQQKSPGSAPVTLIYQNTNRPSNIPSRFSGSTSGSTGTLTITGVQAEDEAVYFCGSRDSSGDGIFGAGTTLTVLGQSSRSSGGGGSSGGGGSAVTLDESGGGLQTPGRALSLVCKASGFTFSSYDMAWVRQEPGKGLEYVASISRSGRYTRYGPAVKGRATISRDNGQSTVRLQLNNLRAEDTATYFCTRGGAVSIDTWGHGTEVIVSS
notes: Selected from a chicken scFv phage library by indirect ELISA
As to B4, in assay [2], the binding result is “binds”.

B5: 2B1-Ck-L1-Myc (scFv)
scFv: QAALTQPSSVSANPGETVKITCSGGDSYAGSYYYGWFQQKAPGSAPVTVIYYNDKRPSDIPSRFSGSTSGSTSTLTITGVQAEDEAVYYCGSIDTSSGTGIFGAGTTLTVLGQSSRSSGGGGSSGGGGSAVTLDESGGGLQTPGGALSLVCKGSGFTFSSYQMFWVRQAPGKGLEYVAEISGSGLSTWYAPAVKGRATISRDNGQSTVRLQLNNLRAEDTGTYYCAKAAGSCGVGTCAGGIVDGIDAWGHGTEVIVSSTSGQAGQRTVAAPSVFIFPPSDEQLKSGTASVVCLLNNFYPREAKVQWKVDNALQSGNSQESVTEQDSKDSTYSLSSTLTLSKADYEKHKVYACEVTHQGLSSPVTKSFNRGESGGGGSEQKLISEEDL
Molecule B5 showed an MFI in assay [1] of 1520.

B6: hMyc (7A1) CAR (7A1-BBz), on human T cells (other)
chain: LTQPSSVSVNPGETVKITCSGGGSSSYYGWYQQKSPGSAPVTLIYQNTNRPSNIPSRFSGSTSGSTGTLTITGVQAEDEAVYFCGSRDSSGDGIFGAGTTLTVLGQSSRSSGGGGSSGGGGSAVTLDESGGGLQTPGRALSLVCKASGFTFSSYDMAWVRQEPGKGLEYVASISRSGRYTRYGPAVKGRATISRDNGQSTVRLQLNNLRAEDTATYFCTRGGAVSIDTWGHGTEVIVSSTTTPAPRPPTPAPTIASQPLSLRPEACRPAAGGAVHTRGLDFACDIYIWAPLAGTCGVLLLSLVITLYCKRGRKKLLYIFKQPFMRPVQTTQEEDGCSCRFPEEEEGGCELRVKFSRSADAPAYKQGQNQLYNELNLGRREEYDVLDKRRGRDPEMGGKPRRKNPQEGLYNELQKDKMAEAYSEIGMKGERRRGKGHDGLYQGLSTATKDTYDALHMQALPPR
notes: also called hMyc CAR-T cells (7A1)
In the case of B6, the “number over the gate bar (percent of cells in the gate)” value in assay [3] is 19.

B7: hMyc (8A9) CAR (8A9-BBz), on human T cells (other)
chain: LTQPSSVSANPGETVEITCSGGSSGYYGWHQQKSPGSAPVTVIYENTNRPSDIPSRFSGSKSGSTATLTITGVQADDEAVYFCGSYDSSSASGIFGAGTTLTVLGQSSRSSGGGGSSGGGGSAVTLDESGGGLQTPGGGLSLVCKASGFTFSSYDMAWVRQEPGKGLEYVASISRSGRYTRYGPAVKGRATISRDNGQSTVRLQLNNLRAEDTATYFCTRGGAVSIDTWGHGTEVIVSSTTTPAPRPPTPAPTIASQPLSLRPEACRPAAGGAVHTRGLDFACDIYIWAPLAGTCGVLLLSLVITLYCKRGRKKLLYIFKQPFMRPVQTTQEEDGCSCRFPEEEEGGCELRVKFSRSADAPAYKQGQNQLYNELNLGRREEYDVLDKRRGRDPEMGGKPRRKNPQEGLYNELQKDKMAEAYSEIGMKGERRRGKGHDGLYQGLSTATKDTYDALHMQALPPR
notes: also called hMyc CAR-T cells (8A9)
Consider B7, for which the “number over the gate bar (percent of cells in the gate)” value in assay [3] was found to be 21.9.

B8: hMyc (3A6) CAR (3A6-BBz), on human T cells (other)
chain: LTQPSSVSANLGGTVKITCSGGGGSDDGSYYYSWHQQKSPGSAPVTVIYENNNRPSDIPSRFSGSKSGSTATLTITGVQAEDEAVYYCGSRDSSYVDYVGIFGAGTTLTVLGQSSRSSGGGGSSGGGGSAVTLDESGGGLQTPGRALSLVCKASGFTFSSYDMAWVRQEPGKGLEYVASISRSGRYTRYGPAVKGRATISRDNGQSTVRLQLNNLRAEDTATYFCTRGGAVSIDTWGHGTEVIVSSTTTPAPRPPTPAPTIASQPLSLRPEACRPAAGGAVHTRGLDFACDIYIWAPLAGTCGVLLLSLVITLYCKRGRKKLLYIFKQPFMRPVQTTQEEDGCSCRFPEEEEGGCELRVKFSRSADAPAYKQGQNQLYNELNLGRREEYDVLDKRRGRDPEMGGKPRRKNPQEGLYNELQKDKMAEAYSEIGMKGERRRGKGHDGLYQGLSTATKDTYDALHMQALPPR
notes: also called hMyc CAR-T cells (3A6)
B8: the “number over the gate bar (percent of cells in the gate)” value in assay [3] amounted to 38.9.

B9: 2B1-Cκ-Myc (2B1-Cκ linked with C-terminal Myc peptide) (scFv)
scFv: QAALTQPSSVSANPGETVKITCSGGDSYAGSYYYGWFQQKAPGSAPVTVIYYNDKRPSDIPSRFSGSTSGSTSTLTITGVQAEDEAVYYCGSIDTSSGTGIFGAGTTLTVLGQSSRSSGGGGSSGGGGSAVTLDESGGGLQTPGGALSLVCKGSGFTFSSYQMFWVRQAPGKGLEYVAEISGSGLSTWYAPAVKGRATISRDNGQSTVRLQLNNLRAEDTGTYYCAKAAGSCGVGTCAGGIVDGIDAWGHGTEVIVSSTSGQAGQRTVAAPSVFIFPPSDEQLKSGTASVVCLLNNFYPREAKVQWKVDNALQSGNSQESVTEQDSKDSTYSLSSTLTLSKADYEKHKVYACEVTHQGLSSPVTKSFNRGESEQKLISEEDL
notes: also called 2B1-Ck-Myc; Myc peptide-tagged anti-hCD40 adaptor
In assay [1], B9 returned an MFI of 1860.

B10: Chicken anti-CD40 scFv (2B1) (scFv)
scFv: QAALTQPSSVSANPGETVKITCSGGDSYAGSYYYGWFQQKAPGSAPVTVIYYNDKRPSDIPSRFSGSTSGSTSTLTITGVQAEDEAVYYCGSIDTSSGTGIFGAGTTLTVLGQSSRSSGGGGSSGGGGSAVTLDESGGGLQTPGGALSLVCKGSGFTFSSYQMFWVRQAPGKGLEYVAEISGSGLSTWYAPAVKGRATISRDNGQSTVRLQLNNLRAEDTGTYYCAKAAGSCGVGTCAGGIVDGIDAWGHGTEVIVSS
notes: also called parental antibody of the humanized anti-CD40 scFv; 2B1 scFv
In general, Kd refers to a measure of binding affinity in units of concentration. A lower Kd goes with tighter binding. Usually koff stands for a measure of how fast the partners let go of each other. Higher therefore signals fast dissociation. As usually defined, the kon is a measure of how fast the partners come together. Low readings indicate slow association, high ones fast association. In assay [4], B10 showed a dissociation constant Kd of 2.83 nM, a dissociation rate constant (koff) of 0.00588 s⁻¹ and an association rate constant (kon) of 2.08e+06 M⁻¹ s⁻¹.

B11: Murine anti-His scFv (scFv)
scFv: DILMTQTPSSLPVSLGDQASISCRSSQSIVHSNGNTYLEWYLQKPGQSPKLLIYKVSNRFSGVPDRFSGSGSGTDFTLKISRVEAEDLGVYYCFQGSHVPFTFGSGTKLEIKRGGGGSGGGGSGGGGSGGGGSQVQLQQSGPEDVKPGASVKISCKASGYTFTDYYMNWVKQSPGKGLEWIGDINPNNGGTSYNQKFKGRATLTVDKSSSTAYMELRSLTSEDSSVYYCESQSGAYWGQGTTVTVSA
notes: also called anti-His (3D5M) scFv
In assay [5], B11 yielded an equilibrium dissociation constant (Kd) of 36.6 nM, an off-rate constant (koff) of 0.00547 s⁻¹ and an on-rate constant (kon) of 149000 M⁻¹ s⁻¹.
